Assay results: publication PMC5476585

Target: 25-nucleosome array (human)

- magnesium-dependent self-association of 25-nucleosome arrays (0.25, 0.5 and 1 mM MgCl2), chromatin in the pellet fraction after centrifugation: > 90%
Substance: Fpr4 FKBP (280-392) (from UniProt Q06205 280-392) (domain or fragment)
